Data reported in PMC1289080.

B1: sR47 mut C/D and C'/D' (structured_RNA)
RNA: GAUGAAGAUUCUGAGCUCGGCAGGUCCUUCGGAGUUCUGAGGAUCUUGAGUGCUUCUUCACCUU

Target: T1, L7Ae (Pyrococcus abyssi, UniProt P62008 1-123)
Test: EMSA

Binding result, no binding:
GGGACUGACCAGUGAUGACCC (structured_RNA) [sR6 CCA spacer]
GGGACUGAGGGUGAUGACCC (structured_RNA) [sR6 2-nt spacer GG]

Target: T1, L7Ae
Test: EMSA
Remark: another data set of the same source

Binding result, no binding:
GGGACUUCGCAGUUCUGACCC (structured_RNA) [sR6 mut C'/D']
GGGACUGACCCGUGAUGACCC (structured_RNA) [sR6 LC]
GGGACUGAGCAUUGAUGACCC (structured_RNA) [sR6 L2]
B1
